Laboratory results published in US20140303084.
Residue numbers refer to the chain shown, from its start.

How the values were obtained:
[1] = tested on: T1, PRIRTVGPSSRSASGKLTCLASYCWLFWTGIA
T1 sequence: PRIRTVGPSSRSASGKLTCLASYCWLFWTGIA

[2] = tested on: T2, RRaPGKLTCLASYCWLFWTGIA
T2 sequence: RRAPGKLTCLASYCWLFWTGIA

[3] = tested on: T3, PRISTVGPGSRSASGKLTCLASYCWLFWTGIA
T3 sequence: T1 sequence with R4S, S9G

[4] = tested on: T4, K-MeLeu-TCLASYCWLF
T4 sequence: KLTCLASYCWLF

[5] = tested on: T5, RRAPGKLTCLASYCWLK(PEG2-Biotin)WTGIA
T5 sequence: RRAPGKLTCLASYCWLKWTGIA

[6] = tested on: T6, PRSRTVGPGSRSASGKSTCLASYCWLFWTGIA
T6 sequence: T1 sequence with I3S, S9G, L17S

[7] = tested on: T7, WRAGLDESQR DRAPG KLTCLASYCWLFWTGIA
T7 sequence: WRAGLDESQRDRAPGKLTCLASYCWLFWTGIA

[8] = tested on: T8, SKQGRPISPDrRAAGKLTCLASYCW-NMeLeu-FWTGIA
T8 sequence: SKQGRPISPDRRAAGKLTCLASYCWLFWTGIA

[9] = tested on: T9, rRAAGKLTCLASYCWLAATGIA
T9 sequence: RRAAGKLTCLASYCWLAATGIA

[10] = tested on: T10, PRIRTVGPGSRSASGKLTCLASYCWLFFTGIA
T10 sequence: T1 sequence with S9G, W28F

[11] = tested on: T11, C(PEG5K)GGGLVPRGGG-RRAPGKLT-Asp-LASY-Lys-WLFWTGIA
T11 sequence: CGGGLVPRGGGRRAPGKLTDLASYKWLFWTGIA

[12] = tested on: T12, KRYVYRQMCLVSACWLLQLGYA
T12 sequence: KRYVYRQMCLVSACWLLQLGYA

[13] = tested on: T13, C(N-ethylmaleimide)-PEG4-LVPR-PEG4-rRAPGKLTCLASYCWLFWTGIA
T13 sequence: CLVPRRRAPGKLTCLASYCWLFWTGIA

[14] = tested on: T14, k-MeLeu-TCLASYCWLA
T14 sequence: KLTCLASYCWLA

[15] = tested on: T15, rRAAGKATCLASACW LAATGIA
T15 sequence: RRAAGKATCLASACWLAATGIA

[16] = tested on: T16, GYRVPVGGLV RRAHG KLTCLASYCWLFWTGIA
T16 sequence: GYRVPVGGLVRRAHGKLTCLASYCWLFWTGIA

[17] = tested on: T17, RRApGKLTCLASYCWLFWTGIA
T17 sequence: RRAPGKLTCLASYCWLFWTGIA

[18] = tested on: T18, RRAPG-MeLys-LTCLASYCWLFWTGIA
T18 sequence: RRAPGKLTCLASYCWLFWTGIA

[19] = tested on: T19, CGGSGGRRAPGKLQCLASYCWLFWTGIAGGSGGC
T19 sequence: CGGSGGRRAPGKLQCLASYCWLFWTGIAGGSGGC

[20] = tested on: T20, RRAPGKLTCLASYCWLF LGGIA PEGASTRTAN
T20 sequence: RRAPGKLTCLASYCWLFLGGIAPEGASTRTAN

[21] = tested on: T21, RRAPGKLTcLASYCWLFWTGIA
T21 sequence: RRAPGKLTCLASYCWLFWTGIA

[22] = tested on: T22, KKTCVASFCQMI
T22 sequence: KKTCVASFCQMI

[23] = tested on: T23, TLWPWGGQGG RNAPG KLTCLASYCWLFWTGIA
T23 sequence: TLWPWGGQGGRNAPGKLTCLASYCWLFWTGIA

[24] = tested on: T24, RYQRARLTCLASYCGLLFSMSA
T24 sequence: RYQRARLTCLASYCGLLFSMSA

[25] = tested on: T25, compound C
T25 sequence: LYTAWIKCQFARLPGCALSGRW

[26] = tested on: T26, PNLLRVRTSE VRNPG KLTCLASYCWLFWTGIA
T26 sequence: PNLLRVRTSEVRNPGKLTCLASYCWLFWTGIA

[27] = tested on: T27, RRAPGCLTALASYCWLFWTGIA-CONH2
T27 sequence: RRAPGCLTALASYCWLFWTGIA

[28] = tested on: T28, RRAKGKLQCLASYCWLFWTGIA
T28 sequence: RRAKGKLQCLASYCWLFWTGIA

[29] = tested on: T29, PEG16-Lys(PEG2-Biotin)-PEG16-rRAPGKLTCLASYCWLFWTGIA
T29 sequence: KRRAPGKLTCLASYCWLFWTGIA

[30] = tested on: T30, (PEG)27-KLTCLASYCWLF
T30 sequence: KLTCLASYCWLF

[31] = tested on: T31, RRAPGKLTCLASYCWLFWTGIA-COOH
T31 sequence: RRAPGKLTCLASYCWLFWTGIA

[32] = tested on: T32, rRAPGKLTCLASYCWLFWTGIA-PEG16-Lys(PEG2-Biotin)-PEG16-Lys(palmitoyl)
T32 sequence: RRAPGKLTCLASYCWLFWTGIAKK

[33] = tested on: T33, RRAPGKLQCLASYCWLFWAGIA
T33 sequence: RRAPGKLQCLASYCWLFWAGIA

[34] = tested on: T34, RRAPGKLTCLASYCWLF WRGFA ERASEDTNQG
T34 sequence: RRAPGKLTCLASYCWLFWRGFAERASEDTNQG

[35] = tested on: T35, GKLQCLASYCWLFWTGIA
T35 sequence: GKLQCLASYCWLFWTGIA

[36] = tested on: T36, RRKPGKLQCLASYCWLFWTGIA
T36 sequence: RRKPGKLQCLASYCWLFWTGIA

[37] = tested on: T37, RRAPGCLTALASYAWLCWTGIA-CONH2
T37 sequence: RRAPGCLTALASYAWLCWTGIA

[38] = tested on: T38, PRIRTVGPGSRSASGKLTCLASYCWLFWTSIA
T38 sequence: T1 sequence with S9G, G30S

[39] = tested on: T39, compound 10
T39 sequence: KLTCLASYCWLFWTGIA

[40] = tested on: T40, LTWREKLACLASYCWLFLWGAP
T40 sequence: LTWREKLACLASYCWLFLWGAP

[41] = tested on: T41, TSGPFGFGGS SRAQG KLTCLASYCWLFWTGIA
T41 sequence: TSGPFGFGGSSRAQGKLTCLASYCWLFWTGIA

[42] = tested on: T42, RRAPGKLK(PEG2-Biotin)CLASYCWLFWTGIA
T42 sequence: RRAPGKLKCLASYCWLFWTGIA

[43] = tested on: T43, KLTCLASYCWIF
T43 sequence: KLTCLASYCWIF

[44] = tested on: T44, KLTCLASYCWIF; remark: listed apart in the source
T44 sequence: KLTCLASYCWLF

[45] = tested on: T45, RRAPGKLTCLASYCWLFWTGIK(PEG2-Biotin)
T45 sequence: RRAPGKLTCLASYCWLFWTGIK

[46] = tested on: T46, RRAPGKLTCLASYCWLFWTG-MeIle-A
T46 sequence: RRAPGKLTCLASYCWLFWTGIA

[47] = tested on: T47, RRAPGKCTALASYCWLFWTGIA-CONH2
T47 sequence: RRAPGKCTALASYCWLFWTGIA

[48] = tested on: T48, RRAPGKLTCLASYcWLFWTGIA
T48 sequence: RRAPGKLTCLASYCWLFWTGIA

With human Factor IXa the Vmax, FXa generation assay [1] was over 3, the “Vmax, FXa generation assay; (++) means 1-2” value [2] was “(++)” and the Vmax, FXa generation assay [3] was over 3. For the same substance, the Vmax, FXa generation assay [4] was over 2, the Vmax, FXa generation assay [5] was over 2 and the Vmax, FXa generation assay [6] was over 3. For the same substance, the “Vmax, FXa generation assay; (++) means 1-2” value [7] was “(++)”, the Vmax, FXa generation assay [8] was over 1.9 and the Vmax, FXa generation assay [9] was over 0.8. For the same substance, the Vmax, FXa generation assay [10] was over 3, the “Vmax, FXa generation assay; (++) means 1-2” value [11] was “(++)” and the “Vmax, FXa generation assay; (++) means 1-2” value [12] was “(++)”. For the same substance, the “Vmax, FXa generation assay; (++) means 1-2” value [13] was “(++)”, the Vmax, FXa generation assay [14] was over 2 and the Vmax, FXa generation assay [15] was over 3. For the same substance, the Vmax, FXa generation assay [16] was over 2, the “Vmax, FXa generation assay; (++) means 1-2” value [17] was “(++)” and the “Vmax, FXa generation assay; (++) means 1-2” value [18] was “(++)”. The “Vmax, FXa generation assay; (++) means 1-2” value [19] was “(++)”, the Vmax, FXa generation assay [20] was over 3 and the “Vmax, FXa generation assay; (++) means 1-2” value [21] was “(++)”. For the same substance, the Vmax, FXa generation assay [22] was over 4, the Vmax, FXa generation assay [23] was over 2 and the Vmax, FXa generation assay [24] was over 0.5. The KM (nM) of hFIXa for FX [25] was 99 nM, the Vmax, FXa generation assay with hFIXa [25] was over 0.6 and the kcat (min^-1) of hFIXa for FX, scrambled control at 10.0 µM [25] was 0.00044 min⁻¹. The “Vmax, FXa generation assay; (++) means 1-2” value [26] was “(++)”, the “Vmax, FXa generation assay; (++) means 1-2” value [27] was “(++)” and the “Vmax, FXa generation assay; (++) means 1-2” value [28] was “(++)”. The Vmax, FXa generation assay [29] was over 3, the Vmax, FXa generation assay [30] was over 2 and the Vmax, FXa generation assay [31] was over 2. For the same substance, the Vmax, FXa generation assay [32] was over 3, the Vmax, FXa generation assay [33] was over 3 and the Vmax, FXa generation assay [34] was over 2. The Vmax, FXa generation assay [35] was over 2, the Vmax, FXa generation assay [36] was over 2 and the “Vmax, FXa generation assay; (++) means 1-2” value [37] was “(++)”. For the same substance, the Vmax, FXa generation assay [38] was over 3, the “Vmax, FXa generation assay with hFIXa; (++) means 1-2” value [39] was “(++)” and the “Vmax, FXa generation assay; (++) means 1-2” value [40] was “(++)”. For the same substance, the “Vmax, FXa generation assay; (++) means 1-2” value [41] was “(++)”, the “Vmax, FXa generation assay; (++) means 1-2” value [42] was “(++)” and the Vmax, FXa generation assay [43] was over 2. For the same substance, the Vmax, FXa generation assay [44] was over 3, the “Vmax, FXa generation assay; (++) means 1-2” value [45] was “(++)” and the Vmax, FXa generation assay [46] was over 2.3. For the same substance, the Vmax, FXa generation assay [47] was over 2 and the “Vmax, FXa generation assay; (++) means 1-2” value [48] was “(++)”.
